Data taken from the supplement of paper PMC12042874.
± gives the uncertainty stated by the source.

Assay: amyloid nucleation score (Sup35N fusion, yeast selection) (log enrichment); library NNK3; higher = more nucleation; inactive = no reads after selection
Method in brief: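 Sup35N fusions to peptides of 20 random codons were expressed in psi-negative yeast, induced 24 hours with 100 μM copper sulfate, and grown 7 days at 30°C on medium lacking adenine and uracil. Input and output plasmid inserts were sequenced by Illumina. The nucleation score is the DiMSum log enrichment of output over input reads, centred on the mode score of non-aggregating sequences. Sequences with under 100 input reads were excluded.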

Substance | amyloid nucleation score
VVIHRSSSISGT | inactive
DHRRLPSCPIFDWFTLNRGP | inactive
RLSWSQPVLNVSTCEGVN | inactive
HASSWFYWRIFASGLNSDR | inactive
FLSLIKM | 0.39 ± 0.2
VLRVLLGFDKFTATISTPDG | 0.323 ± 0.28
PPGLGYSMVFYSSVDMHMLS | inactive
MAVLHSLFVKVQLMTSNFS | inactive
RTDYVISNVAMCNSLLC | 2.8 ± 0.082
RGSPFSWVGPSDRSWSPKFP | inactive
LYLAMRENMWFEPEVNGCYG | inactive
ENLLISKRCINGMA | inactive
SYNYRGADRWLT | inactive
MQSAVNVV | inactive
FNWCWPISARAGELNLECWS | inactive
YRGKIGTWECGVISYETAAT | inactive
IFPFFVVFGFDTYAGI | inactive
PRLSAFVLRNYLRPKGYGGA | inactive
ARPNGTTKCVDNGRKPVRII | inactive
TPRQFSDGCISFNKVTINPQ | 0.704 ± 0.34
HLTVVSSKYITPSGTLMELH | 0.648 ± 0.27
NRTCNDLMTFYSWGSSR | inactive

Substance | amyloid nucleation score
LREVLCCVSTDSYVFILLRG | 1.01 ± 0.14
HMIRAVFLSCMSASILVTIK | -0.366 ± 0.53
LERVSVSTQYLRLHLDLNSF | inactive
LPGCSTWFGVFFIHDFNLTL | 1.69 ± 0.091
LDEGPPSAWVFATKTNFCES | inactive
GSGGYWFMINVPENKIWVYL | 1.72 ± 0.11
ELDCELMIALFLLWIVHANG | -0.657 ± 0.93
NNSAM | -0.178 ± 1.1
LIFTTTRSLFTALPGFEYKD | inactive
YVVHRLSRVFQLANLYYYAK | inactive
GYAISRFVFDTFRIFAVL | inactive
RSALILAWHCRSMSLQDAEG | inactive
QLFTVTLQLTLLSKIDTANL | 1.03 ± 0.13
SETKVIGQLRKTSNSEAHNA | 0.422 ± 0.67
MLLYYEEGLCIFLLSLNPVC | inactive
SLMLGYETFFMPCGQDMAKW | inactive
AMSTPIGMGEVKFKCFILWL | 0.56 ± 0.18
GNCHDVWVYVLCTVGMSLMR | inactive
GLVWVN | inactive
WSGCMWSCARGYGSFPSGPL | inactive
VRVTLWYQTNMGIFEGHSRN | inactive
RWWTCSQSNSGVIFEQIYQT | inactive

Substance | amyloid nucleation score
MGHDCHRDW | inactive
YVNSNWNNISAQASNSFSGR | inactive
CVYQLLGLVKMRNIRADGHA | inactive
SHNRCVEWFKWIF | 0.885 ± 0.09
GIYSI | inactive
GACTHGRSSCDKIYLRYSYG | inactive
HAMCHVVGTRISGYLCAYGT | inactive
DEGKSNPPF | inactive
NRVAYTAQCQIIFCVGGYCL | 2.72 ± 0.069
CLCNRDRLSSNFGGMTDKLH | inactive
VSPMVALCCFCLKEMNFGVH | 2.92 ± 0.069
FTSMFVLIVILSQMLSLQFR | inactive
NRTSLCKEDLVRVSFDGYLL | inactive
NFGQTGRCYKRLRFC | inactive
ESTYVDGRNTVNDYCPNSTI | inactive
RVTIVPTKHHLML | inactive
AIKLC | inactive
LSITDVGI | inactive
FKSCLRTC | inactive
IRAYTDNDSNLSEFGVFTLV | inactive
AFINMMWNSTMDLCRPFLPT | 0.698 ± 0.27
